Assay results taken from patent US20220332804A1 (CSL INNOVATION, published 2022).

Legend:
Experiment in all cases: SPR, antibody captured, C2 as analyte;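 further: biacore SPR at 37 °C, anti-C2 mAbs captured via goat anti-human IgG on CM5 chips, double-referenced sensorgrams fit to a 1:1 kinetic or steady-state model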
human C2 R714A = target: T1, human C2 R714A (human, UniProt P06681 21-752)
T1 sequence: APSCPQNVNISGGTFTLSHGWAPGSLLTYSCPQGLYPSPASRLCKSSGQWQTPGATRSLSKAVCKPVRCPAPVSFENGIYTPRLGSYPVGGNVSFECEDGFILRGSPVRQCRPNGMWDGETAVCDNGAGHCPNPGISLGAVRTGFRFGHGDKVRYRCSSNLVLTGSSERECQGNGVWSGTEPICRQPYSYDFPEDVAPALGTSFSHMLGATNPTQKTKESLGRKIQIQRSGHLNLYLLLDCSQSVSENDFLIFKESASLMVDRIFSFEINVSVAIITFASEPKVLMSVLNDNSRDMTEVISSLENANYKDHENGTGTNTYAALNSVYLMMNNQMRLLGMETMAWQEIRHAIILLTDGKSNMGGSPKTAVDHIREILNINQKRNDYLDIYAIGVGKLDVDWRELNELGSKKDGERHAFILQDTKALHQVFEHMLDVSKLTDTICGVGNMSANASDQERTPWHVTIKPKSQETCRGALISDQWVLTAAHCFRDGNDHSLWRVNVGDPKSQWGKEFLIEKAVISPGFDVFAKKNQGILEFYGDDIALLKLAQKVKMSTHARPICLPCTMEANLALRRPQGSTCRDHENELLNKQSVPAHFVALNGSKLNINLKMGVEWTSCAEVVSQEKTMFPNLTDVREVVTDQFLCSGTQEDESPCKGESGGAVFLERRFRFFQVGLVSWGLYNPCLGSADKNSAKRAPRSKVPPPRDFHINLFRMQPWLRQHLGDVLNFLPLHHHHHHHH

human C2 N424A = target: T2, human C2 N424A (human, UniProt P06681 21-752)
T2 sequence: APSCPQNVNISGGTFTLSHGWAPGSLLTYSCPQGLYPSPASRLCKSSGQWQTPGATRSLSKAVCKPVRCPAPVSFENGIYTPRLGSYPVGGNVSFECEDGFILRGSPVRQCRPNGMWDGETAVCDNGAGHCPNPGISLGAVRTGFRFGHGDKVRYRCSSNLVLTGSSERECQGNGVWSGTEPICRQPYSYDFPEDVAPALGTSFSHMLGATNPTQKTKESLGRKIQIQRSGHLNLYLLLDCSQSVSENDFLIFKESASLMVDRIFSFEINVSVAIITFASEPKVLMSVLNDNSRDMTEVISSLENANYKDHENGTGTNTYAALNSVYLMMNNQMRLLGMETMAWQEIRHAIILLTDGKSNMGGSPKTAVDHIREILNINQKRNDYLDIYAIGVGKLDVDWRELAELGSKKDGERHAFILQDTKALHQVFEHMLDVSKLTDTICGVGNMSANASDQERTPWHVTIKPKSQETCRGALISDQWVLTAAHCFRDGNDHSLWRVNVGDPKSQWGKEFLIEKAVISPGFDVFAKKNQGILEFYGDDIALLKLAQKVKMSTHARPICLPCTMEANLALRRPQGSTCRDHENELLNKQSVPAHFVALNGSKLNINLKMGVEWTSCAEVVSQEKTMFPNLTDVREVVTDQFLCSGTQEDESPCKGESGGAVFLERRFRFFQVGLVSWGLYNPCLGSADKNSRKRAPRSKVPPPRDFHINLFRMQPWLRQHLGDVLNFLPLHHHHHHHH

human C2 G466A = target: T3, human C2 G466A (human, UniProt P06681 21-752)
T3 sequence: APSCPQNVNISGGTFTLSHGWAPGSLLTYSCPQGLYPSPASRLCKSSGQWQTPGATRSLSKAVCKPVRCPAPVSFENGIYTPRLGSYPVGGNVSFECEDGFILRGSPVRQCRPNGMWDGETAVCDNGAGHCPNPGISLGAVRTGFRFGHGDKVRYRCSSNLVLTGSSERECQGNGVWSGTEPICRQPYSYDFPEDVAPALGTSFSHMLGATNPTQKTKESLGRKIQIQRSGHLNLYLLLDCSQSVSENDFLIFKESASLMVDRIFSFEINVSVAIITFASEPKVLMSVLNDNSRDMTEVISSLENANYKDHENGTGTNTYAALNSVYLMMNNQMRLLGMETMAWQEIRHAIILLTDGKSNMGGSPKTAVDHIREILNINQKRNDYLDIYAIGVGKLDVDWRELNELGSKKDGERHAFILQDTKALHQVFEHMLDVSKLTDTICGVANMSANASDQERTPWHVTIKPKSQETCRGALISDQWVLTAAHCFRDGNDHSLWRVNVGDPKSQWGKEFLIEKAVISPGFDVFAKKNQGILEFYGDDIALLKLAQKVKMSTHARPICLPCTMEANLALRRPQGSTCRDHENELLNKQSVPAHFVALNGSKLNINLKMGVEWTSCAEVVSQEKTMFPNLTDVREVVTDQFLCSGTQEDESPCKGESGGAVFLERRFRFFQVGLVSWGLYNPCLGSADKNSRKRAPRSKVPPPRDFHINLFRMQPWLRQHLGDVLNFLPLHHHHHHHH

human C2 E686A = target: T4, human C2 E686A (human, UniProt P06681 21-752)
T4 sequence: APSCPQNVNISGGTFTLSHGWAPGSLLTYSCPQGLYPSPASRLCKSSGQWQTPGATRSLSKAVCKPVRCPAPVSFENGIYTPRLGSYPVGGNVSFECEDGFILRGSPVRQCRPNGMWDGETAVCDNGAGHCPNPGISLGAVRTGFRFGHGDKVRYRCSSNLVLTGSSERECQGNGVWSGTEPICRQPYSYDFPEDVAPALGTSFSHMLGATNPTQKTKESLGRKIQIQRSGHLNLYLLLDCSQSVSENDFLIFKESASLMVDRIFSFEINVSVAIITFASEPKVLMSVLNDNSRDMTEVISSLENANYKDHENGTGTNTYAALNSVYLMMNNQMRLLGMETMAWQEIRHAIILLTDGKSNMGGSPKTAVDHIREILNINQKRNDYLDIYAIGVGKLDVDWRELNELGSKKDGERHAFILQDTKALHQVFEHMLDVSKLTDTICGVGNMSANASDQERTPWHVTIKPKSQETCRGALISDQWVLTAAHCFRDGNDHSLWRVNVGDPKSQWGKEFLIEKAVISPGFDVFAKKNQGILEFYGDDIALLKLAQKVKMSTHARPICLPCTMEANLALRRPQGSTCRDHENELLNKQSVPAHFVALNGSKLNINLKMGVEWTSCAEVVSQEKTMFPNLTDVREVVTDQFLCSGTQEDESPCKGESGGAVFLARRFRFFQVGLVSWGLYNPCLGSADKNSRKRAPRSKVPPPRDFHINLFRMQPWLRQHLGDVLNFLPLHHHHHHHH

B1: RF16-226 (antibody, human IgG4 S228P, lambda)
heavy: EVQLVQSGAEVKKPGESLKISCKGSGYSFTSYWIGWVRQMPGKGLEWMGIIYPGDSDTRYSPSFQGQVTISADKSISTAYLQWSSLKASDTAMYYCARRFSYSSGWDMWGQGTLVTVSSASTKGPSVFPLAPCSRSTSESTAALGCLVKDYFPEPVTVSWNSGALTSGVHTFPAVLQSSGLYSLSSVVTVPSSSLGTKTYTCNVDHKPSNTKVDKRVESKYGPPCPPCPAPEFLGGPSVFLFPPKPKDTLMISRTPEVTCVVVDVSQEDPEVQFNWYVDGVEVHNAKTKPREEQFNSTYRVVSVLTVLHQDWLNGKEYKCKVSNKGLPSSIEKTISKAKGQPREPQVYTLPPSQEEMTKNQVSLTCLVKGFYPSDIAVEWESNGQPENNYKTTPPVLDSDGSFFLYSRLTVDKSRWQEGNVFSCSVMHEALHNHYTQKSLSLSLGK
light: SYELTQPPSVSVSPGQTARITCSGDALTSKYVAWYQQKSGLAPLLVIYEDTRRPSGIPAKFSGSSSGSVATLTISGAHGDDEADYYCYSTDASGHQRVFGGGTKLTVLSQPKAAPSVTLFPPSSEELQANKATLVCLISDFYPGAVTVAWKADGSPVKAGVETTKPSKQSNNKYAASSYLSLTPEQWKSHRSYSCQVTHEGSTVEKTVAPTECS
notes: pH-dependent anti-C2 antibody from a phage display library; also called WT
Q: Which results are given for B1?
A: Kd (human C2 R714A): 53 nM; Kd (human C2 N424A): 3.2 nM; Kd (human C2 G466A): 32.4 nM; Kd (human C2 E686A): 47.3 nM
